Assay results taken from US20250326862A1, “Antibody or Fragment Thereof Binding Specifically to Mertk, and Anti-Tumor Agent” (Chiome Bioscience Inc., priority 2021, published 2025).
“Also recorded” adds a separate entry of the source.

Columns and labels:
[1] = target: T1, binding of MerTK with TULP1 (Homo sapiens, UniProt Q12866); experiment: Test 6: ligand binding inhibition ELISA, MerTK with TULP1; details: human MerTK 5 μg/ml immobilized; biotinylated TULP1 40 nM; FIGS. 14 and 16
T1 construct: purchased R&D Systems
T1 sequence (Q12866 26-499 limits assumed): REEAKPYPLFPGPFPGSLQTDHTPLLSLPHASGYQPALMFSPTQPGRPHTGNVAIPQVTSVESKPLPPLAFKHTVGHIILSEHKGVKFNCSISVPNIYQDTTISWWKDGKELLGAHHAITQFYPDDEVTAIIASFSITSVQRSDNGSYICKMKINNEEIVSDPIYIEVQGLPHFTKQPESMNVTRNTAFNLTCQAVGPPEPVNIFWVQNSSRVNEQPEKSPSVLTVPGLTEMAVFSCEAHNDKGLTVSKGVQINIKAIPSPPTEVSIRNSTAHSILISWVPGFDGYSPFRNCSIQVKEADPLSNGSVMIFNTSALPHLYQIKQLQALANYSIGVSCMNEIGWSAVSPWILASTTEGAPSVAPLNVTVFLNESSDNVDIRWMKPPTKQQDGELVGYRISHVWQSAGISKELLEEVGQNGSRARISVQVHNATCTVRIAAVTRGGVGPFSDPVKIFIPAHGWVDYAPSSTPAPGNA
Method: (§1) “20A77” and “24A1” were evaluated for the ability to inhibit binding of MerTK with various ligands. The MerTK ligands used were human Gas6 (R&D Systems) and human TULP1 (abcam plc.) which were respectively biotinylated using “Biotin Labeling Kit-NH” (Dojindo Laboratories Co., Ltd.). […] TULP1 is a ligand correlated with ocular toxicity, and an antibody having an activity to inhibit binding of MerTK with TULP1 may have ocular toxicity. Thus, an antibody having high inhibitory activity of binding to Gas6 and low inhibitory activity of binding to TULP1 may be an efficacious anti-tumor agent having low ocular toxicity.
(§2) The ligand binding inhibition test was carried out as indicated below. First, human MerTK (R&D Systems) was added to an ELISA plate (Nunc) at a concentration of 5 μg/ml and immobilized overnight at room temperature. After removing the immobilization solution, 1% BSA/PBS was added for blocking reaction and left to stand at room temperature for 1 hour. After the blocking, the plate was washed with 0.05% Tween 20/PBS and an antibody solution was added for primary reaction at room temperature for 1 hour. […] After washing, a chromogenic substrate solution of TMB (Dako) was added for chromogenic reaction for 20 minutes, 1 N sulfuric acid was added to terminate the reaction and the absorbance was measured at 450 nm.

[2] = target: T2, binding of MerTK with Gas6 (Homo sapiens, UniProt Q12866); experiment: Test 6: ligand binding inhibition ELISA, MerTK with Gas6; details: human MerTK 5 μg/ml immobilized; biotinylated Gas6 10 nM; FIGS. 13 and 15
T2 construct: purchased R&D Systems
T2 sequence (Q12866 26-499 limits assumed): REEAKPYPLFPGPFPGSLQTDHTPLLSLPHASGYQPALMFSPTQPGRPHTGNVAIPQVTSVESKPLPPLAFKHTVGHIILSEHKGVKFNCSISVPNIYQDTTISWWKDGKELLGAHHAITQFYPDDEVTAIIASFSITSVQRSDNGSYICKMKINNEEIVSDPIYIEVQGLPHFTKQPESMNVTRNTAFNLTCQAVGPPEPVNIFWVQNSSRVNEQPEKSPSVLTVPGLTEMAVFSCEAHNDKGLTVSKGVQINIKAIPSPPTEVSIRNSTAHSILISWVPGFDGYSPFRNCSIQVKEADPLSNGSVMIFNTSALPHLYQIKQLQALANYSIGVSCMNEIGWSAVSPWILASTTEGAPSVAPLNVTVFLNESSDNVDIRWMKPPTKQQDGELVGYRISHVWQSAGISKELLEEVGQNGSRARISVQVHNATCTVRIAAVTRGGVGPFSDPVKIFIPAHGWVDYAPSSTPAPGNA
Method: as §1, §2

[3] = target: T3, human MerTK (Homo sapiens, UniProt Q12866); experiment: MerTK phosphorylation inhibition test in hMerTK-EL4 cells stimulated with human Gas6; type: cell-based; design: expressed in transfected cells; host or cells: mouse lymphoma cell line EL4 (hMerTK-EL4); details: hMerTK-EL4, antibody 1 hour, then 200 nM human Gas6 for 10 minutes; phospho-Mer ELISA; FIG. 1
T3 sequence (Q12866 21-999): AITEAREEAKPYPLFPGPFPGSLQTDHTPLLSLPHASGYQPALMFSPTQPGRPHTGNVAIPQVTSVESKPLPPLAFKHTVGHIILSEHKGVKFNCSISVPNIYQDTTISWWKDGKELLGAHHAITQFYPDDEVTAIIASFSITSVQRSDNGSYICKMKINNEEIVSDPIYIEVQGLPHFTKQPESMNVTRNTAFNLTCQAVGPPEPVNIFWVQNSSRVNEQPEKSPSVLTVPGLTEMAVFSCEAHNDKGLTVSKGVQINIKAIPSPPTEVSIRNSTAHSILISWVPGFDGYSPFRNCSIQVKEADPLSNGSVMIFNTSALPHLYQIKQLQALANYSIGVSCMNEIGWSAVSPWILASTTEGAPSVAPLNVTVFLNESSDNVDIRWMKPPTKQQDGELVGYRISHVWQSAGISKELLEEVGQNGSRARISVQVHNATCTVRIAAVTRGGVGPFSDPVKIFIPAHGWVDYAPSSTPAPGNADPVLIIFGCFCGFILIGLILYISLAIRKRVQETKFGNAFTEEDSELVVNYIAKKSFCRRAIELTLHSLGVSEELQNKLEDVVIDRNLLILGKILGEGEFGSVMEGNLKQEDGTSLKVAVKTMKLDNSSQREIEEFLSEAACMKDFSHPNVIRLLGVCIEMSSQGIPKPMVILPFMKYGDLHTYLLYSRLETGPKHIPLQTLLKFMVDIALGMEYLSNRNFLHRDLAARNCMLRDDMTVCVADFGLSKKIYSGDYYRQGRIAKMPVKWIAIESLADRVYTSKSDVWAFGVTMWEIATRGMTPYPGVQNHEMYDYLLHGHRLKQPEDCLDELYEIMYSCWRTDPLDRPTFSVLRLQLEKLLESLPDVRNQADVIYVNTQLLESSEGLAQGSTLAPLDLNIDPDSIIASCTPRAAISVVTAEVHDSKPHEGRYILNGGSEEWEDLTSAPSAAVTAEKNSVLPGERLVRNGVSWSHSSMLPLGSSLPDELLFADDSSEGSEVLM
Method: On the basis of the procedures indicated below, the clones were evaluated for MerTK phosphorylation inhibitory activity. Higher activity means higher binding ability to MerTK.
The cells (hMerTK-EL4) stably expressing human MerTK were cultured in a “DMEM high glucose medium” (Thermo Fisher Scientific Inc.) containing 10% FBS. After the cultivation, the cells were washed in PBS, suspended in a serum-free medium, plated in a 96-well plate at 1×10^6 cells/well and incubated at 37° C. for 3 hours. After the incubation, the respective clones were added, the hMerTK-EL4 was allowed to react for 1 hour, stimulated with 200 nM human Gas6 (R&D Systems) for 10 minutes and centrifuged and collected. The collected hMerTK-EL4 was lysed in a cell lysis solution, and the level of the phosphorylated MerTK protein in the lysate was determined using “Human Phospho-Mer DuoSet IC ELISA” (R&D Systems). The cell lysis solution used contained 1% “IGEPAL CA-630” (SIGMA) and 1×concentration of “Halt Protease and Phosphatase Inhibitor Single-Use Inhibitor Cocktail” (Thermo Fisher Scientific Inc.) added to MilliQ water.

[4] = target: T4, human MerTK on cells (EL4 cells stably expressing human MerTK); human melanoma cell line G361 intrinsically … (human, UniProt Q12866 21-999); experiment: inferred from inhibition of Gas6-induced MerTK phosphorylation on hMerTK-EL4 cells
T4 construct: whole, on cells; also called hMerTK-EL4
T4 sequence (looked up): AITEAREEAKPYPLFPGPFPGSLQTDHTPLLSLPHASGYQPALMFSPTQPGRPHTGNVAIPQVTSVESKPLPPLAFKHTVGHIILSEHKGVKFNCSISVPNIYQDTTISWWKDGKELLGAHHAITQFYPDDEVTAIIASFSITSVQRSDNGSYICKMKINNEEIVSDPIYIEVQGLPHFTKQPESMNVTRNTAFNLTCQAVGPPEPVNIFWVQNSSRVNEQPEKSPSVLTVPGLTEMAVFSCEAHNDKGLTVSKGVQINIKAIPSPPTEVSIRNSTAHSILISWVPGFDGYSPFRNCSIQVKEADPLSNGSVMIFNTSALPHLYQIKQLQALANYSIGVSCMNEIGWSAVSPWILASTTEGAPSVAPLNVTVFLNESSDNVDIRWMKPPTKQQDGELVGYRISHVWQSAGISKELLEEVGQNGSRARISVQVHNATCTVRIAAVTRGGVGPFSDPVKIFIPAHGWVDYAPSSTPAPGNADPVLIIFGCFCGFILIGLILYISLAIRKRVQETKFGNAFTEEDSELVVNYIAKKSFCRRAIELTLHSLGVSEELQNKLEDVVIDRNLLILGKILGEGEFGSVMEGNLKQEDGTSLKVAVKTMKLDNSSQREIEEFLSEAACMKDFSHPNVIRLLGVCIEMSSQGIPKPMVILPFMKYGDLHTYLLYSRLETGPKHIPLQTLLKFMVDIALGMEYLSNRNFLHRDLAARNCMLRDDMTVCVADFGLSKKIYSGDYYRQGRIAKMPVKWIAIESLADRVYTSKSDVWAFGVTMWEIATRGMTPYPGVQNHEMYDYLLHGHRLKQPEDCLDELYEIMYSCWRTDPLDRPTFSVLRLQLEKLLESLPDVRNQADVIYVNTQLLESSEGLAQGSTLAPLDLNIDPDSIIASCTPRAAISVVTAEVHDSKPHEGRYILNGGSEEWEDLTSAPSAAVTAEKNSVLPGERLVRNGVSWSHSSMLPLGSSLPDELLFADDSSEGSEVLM
Method: The cells (hMerTK-EL4) stably expressing human MerTK were cultured in a “DMEM high glucose medium” (Thermo Fisher Scientific Inc.) containing 10% FBS. After the cultivation, the cells were washed in PBS, suspended in a serum-free medium, plated in a 96-well plate at 1×10⁶ cells/well and incubated at 37° C. for 3 hours. After the incubation, the respective clones were added, the hMerTK-EL4 was allowed to react for 1 hour, stimulated with 200 nM human Gas6 (R&D Systems) for 10 minutes and centrifuged and collected. The collected hMerTK-EL4 was lysed in a cell lysis solution, and the level of the phosphorylated MerTK protein in the lysate was determined using “Human Phospho-Mer DuoSet IC ELISA” (R&D Systems). The cell lysis solution used contained 1% “IGEPAL CA-630” (SIGMA) and 1×concentration of “Halt Protease and Phosphatase Inhibitor Single-Use Inhibitor Cocktail” (Thermo Fisher Scientific Inc.) added to MilliQ water.
Among these 14 clones, “20A77” and “24A1” were selected as clones showing particularly high inhibitory activity and subjected to the following tests.

B1: 20A77 (antibody, V domains shown)
VH: QVQLQQPGTELVKPGASVKLSCRASGNTFTSYWMHWVKQRPGQGLEWIGNINPSNGGTNYNEKFKSKATLTVDKSSSTAYMQLSSLTSEDSAVYYCARLNYYGFDGFAFWGQGTLVTVSA
VL: DIKMTQSPSSMYASLGERVTITCKASQDINSYLSWFQQKPGKSPKTLIYRANRLVDGVPSRFSGSGSGQDYSLTISSLEYEDMGIYYCLQYDEFPFTFGSGTKLEIK
notes: Mouse monoclonal antibody from a hybridoma clone (MerTK knockout mice); In Test 2 (1) the hybridoma clone was added
inhibition of binding of TULP1 with MerTK [1]: did not inhibit binding of TULP1 with MerTK
inhibition of binding of Gas6 with MerTK [2]: inhibited binding of Gas6 with MerTK; also recorded: strongly inhibited binding of Gas6 with MerTK
MerTK phosphorylation inhibitory activity [3]: inhibited binding of Gas6 with MerTK and MerTK phosphorylation in a concentration dependent manner
binding result [4]: binds
